{
  "source": "paper PMC8450099",
  "assay_in_all_cases": "MST",
  "key": {"Mlh1;Pms1 [1]": {"molecular_target": "T1, Mlh1;Pms1 (Saccharomyces cerevisiae (baker's …, UniProt P38920;P14242 1-769;1-873, |))"}, "[2]": {"molecular_target": "T2, Mlh1-FKBP464 (Complex #2 subunit);Pms1-FRB627 (Complex #2 subunit) (Saccharomyces cerevisiae (baker's …, UniProt P38920;P14242 1-464+=GS+P62942:2-108+=GS+465-769;1-627+=[…]+628-873, internal_change|internal_change)"}, "Mlh1;Pms1 [3]": {"molecular_target": "T1, Mlh1;Pms1", "remark": "listed apart in the source"}, "[4]": {"molecular_target": "T3, Mlh1-FRB355 (Complex #5 subunit);Pms1-FKBP460 (Complex #5 subunit) (Saccharomyces cerevisiae (baker's …, UniProt P38920;P14242 1-355+=[…]+356-769;1-460+=GS+P62942:2-108+=GS+461-873, internal_change|internal_change)"}, "[5]": {"molecular_target": "T2, Mlh1-FKBP464 (Complex #2 …)", "remark": "listed apart in the source"}, "[6]": {"molecular_target": "T4, Mlh1-FRB355,FKBP464 (Complex #1 subunit);Pms1 (Saccharomyces cerevisiae (baker's …, UniProt P38920;P14242 1-355+=[…]+356-464+=GS+P62942:2-108+=GS+465-769;1-873, internal_change|)"}, "Mlh1;Pms1 [7]": {"molecular_target": "T1, Mlh1;Pms1", "remark": "listed apart in the source"}, "[8]": {"molecular_target": "T3, Mlh1-FRB355 (Complex #5 …)", "remark": "listed apart in the source"}, "[9]": {"molecular_target": "T2, Mlh1-FKBP464 (Complex #2 …)", "remark": "listed apart in the source"}, "[10]": {"molecular_target": "T4, Mlh1-FRB355,FKBP464 (Complex #1 …)", "remark": "listed apart in the source"}, "Mlh1;Pms1 [11]": {"molecular_target": "T1, Mlh1;Pms1", "remark": "listed apart in the source"}, "[12]": {"molecular_target": "T2, Mlh1-FKBP464 (Complex #2 …)", "remark": "listed apart in the source"}, "[13]": {"molecular_target": "T4, Mlh1-FRB355,FKBP464 (Complex #1 …)", "remark": "listed apart in the source"}},
  "note": "Read-outs that look alike come from different tables or passages of the source.",
  "data": [
    {"binder": "homoduplex AO4549/AO4548 (48-mer in Methods, called 49 bp in Results) (dsDNA) DNA 1: CTGGACGGGTTAAGACCGAACGTGGCTCCAGAAACGGGTGCAACTGGG DNA 2: CCCAGTTGCACCCGTTTCTGGAGCCACGTTCGGTCTTAACCCGTCCAG", "values": [
      {"measurement": "Kd", "setting": "Mlh1;Pms1 [1]", "value": 628, "unit": "nM"},
      {"measurement": "Kd", "setting": "[2]", "value": 391, "unit": "nM"},
      {"measurement": "Kd", "setting": "Mlh1;Pms1 [3]", "value": 141, "unit": "nM"},
      {"measurement": "Kd", "setting": "[4]", "value": 287, "unit": "nM"},
      {"measurement": "Kd", "setting": "[5]", "value": 207, "unit": "nM"},
      {"measurement": "Kd", "setting": "[6]", "value": 98.4, "unit": "nM"},
      {"measurement": "Kd", "setting": "Mlh1;Pms1 [7]", "value": 675, "unit": "nM"},
      {"measurement": "Kd", "setting": "[8]", "value": 556, "unit": "nM"},
      {"measurement": "Kd", "setting": "[9]", "value": 431, "unit": "nM"},
      {"measurement": "Kd", "setting": "[10]", "value": 421, "unit": "nM"},
      {"measurement": "Kd", "setting": "Mlh1;Pms1 [11]", "value": 173, "unit": "nM"},
      {"measurement": "Kd", "setting": "[12]", "value": 211, "unit": "nM"},
      {"measurement": "Kd", "setting": "[13]", "value": 198, "unit": "nM"}
    ]}
  ]
}
